Experimental data published in patent US20230242658A1 (published 2023).
Blank lines part the entries; values can stand above or below the binder they belong to.

Assays:
[1] = target: T1, human 4-1BB on CHO-K1 cells (human, UniProt Q07011 24-255); assay: FACS, CHO-K1/hu 4-1BB cells
T1 construct: whole, on cells; also called CHO-K1/hu 4-1BB; CHO-K1/hu4-1BB

[2] = target: T2, histidine-labeled cynomolgus monkey 4-1BB protein (cynomolgus monkey); assay: BLI Octet RED96, AHC sensor, his-tagged antigen
T2 construct: also called Monkey 4-1BB protein antigen (histidine-labeled); cynomolgus monkey 4-1BB protein and his tag (Acrobiosystem, #41B-052H4)
Description: (§1) Specifically, human 4-1BB protein and his tag (Acrobiosystem, #41B-H5227), or cynomolgus monkey 4-1BB protein and his tag (Acrobiosystem, #41B-052H4), were diluted to 400 nM with PBS buffer (pH 7.4) containing 0.1% (w/w) BSA and 0.02% (v/v) Tween 20, and incubated with the AHC sensor. A 40 nM 4-1BB antibody was incubated with the AHC sensor loaded with human 4-1BB protein or monkey 4-1BB protein at 30° C. for 3 min. The reaction mixture was incubated in PBS buffer (pH 7.4) containing 0.1% (v/w) BSA and 0.02% (v/v) Tween 20 at 30° C. for another 5 min The binding and separation signals between the 4-1BB antibody and 4-1BB protein were recorded by Octet Red 96 in real time. The affinity and association and dissociation constants were determined by Octet using software.

[3] = target: T3, histidine-labeled human 4-1BB protein (human, UniProt Q07011 24-186); assay: BLI Octet RED96, AHC sensor, his-tagged antigen
T3 construct: also called Human 4-1BB protein antigen (histidine-labeled); human 4-1BB protein and his tag (Acrobiosystem, #41B-H5227); not shown: histidine tag
Description: as §1

[4] = target: T4, human PD-L1 on CHO-K1 cells (human, UniProt Q9NZQ7 19-290); assay: FACS, CHO-K1/hPD-L1 cells
T4 construct: whole, on cells; also called CHO-K1/hPDL1; CHO-K1/hPD-L1
T4 sequence (Q9NZQ7 19-290): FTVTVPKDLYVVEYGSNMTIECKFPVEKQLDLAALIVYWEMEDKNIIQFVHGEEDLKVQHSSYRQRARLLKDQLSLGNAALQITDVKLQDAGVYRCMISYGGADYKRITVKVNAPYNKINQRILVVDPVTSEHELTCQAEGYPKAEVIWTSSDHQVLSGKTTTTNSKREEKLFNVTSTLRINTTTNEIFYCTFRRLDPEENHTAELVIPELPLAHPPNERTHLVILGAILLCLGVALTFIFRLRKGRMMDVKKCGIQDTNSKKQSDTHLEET

T1 sequence (Q07011 24-255): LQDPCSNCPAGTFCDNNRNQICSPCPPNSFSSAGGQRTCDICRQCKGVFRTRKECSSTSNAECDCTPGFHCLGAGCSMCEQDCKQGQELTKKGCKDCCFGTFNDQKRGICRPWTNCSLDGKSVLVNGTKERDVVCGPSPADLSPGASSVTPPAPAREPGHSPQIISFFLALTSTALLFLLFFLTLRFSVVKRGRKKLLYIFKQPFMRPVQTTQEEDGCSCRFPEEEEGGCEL
T3 sequence (Q07011 24-186): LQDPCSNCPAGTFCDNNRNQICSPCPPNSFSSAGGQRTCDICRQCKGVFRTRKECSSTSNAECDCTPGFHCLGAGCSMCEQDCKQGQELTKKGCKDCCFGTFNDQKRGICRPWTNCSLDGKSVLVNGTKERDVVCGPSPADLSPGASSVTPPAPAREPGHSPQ

- binding result [1]: binds
B1: PR004469 (antibody, human IgG1, V domains shown)
VH: EVQLLESGGGLVQPGGSLRLSCAASGFTFSNYAMSWFRQPPETGLKWVSSIDASGGDTYYADSVKGRFTISRDNSKNTLYLQMNSLRAEDTAVYYCAKEGSHGTDDSHYDVDVWGQGTTVTVSS
notes: HCAb, PTM variant of PR001838 (G53A), human IgG1

- binding result [1]: binds
B2: PR001775 (antibody, human IgG1, V domains shown)
VH: EVQLLESGGGLVQSGGSLRLSCAASGFTFSSYAMSWVRQAPGKGLEWVSAISGSGGSTDYADSVKGRFTISRDNSTNTLYLQMNSLRAEDTAVYYCAKERAYDYSNYVDFDYWGQGTLVTVSS
notes: HCAb, heavy chain only, human IgG1 Fc; also called 1016P0046A9

- EC50 [1]: < 0.3 nM
- Kd [2]: 18.1 nM
- Response [2]: 0.222
- koff [2]: 0.00347 s⁻¹
- kon [2]: 192000 M⁻¹ s⁻¹
- Kd [3]: 24.9 nM
- Response [3]: 0.307
- koff [3]: 0.00664 s⁻¹
- kon [3]: 266000 M⁻¹ s⁻¹
B3: PR001830 (antibody, human IgG1, V domains shown)
VH: EVQLLESGGGLVQPGGSLRLSCTASGFTFSNYAMSWVRQAPEKGLEWVSSISGSGGSTFYADSVKGRFTISRDNSKNTLYLQMNSLRAEDTAVYFCAKEGSSETDDHYYNVDVWGQGTTVTVSS
notes: HCAb, heavy chain only, human IgG1 Fc; also called 1016P0014G8

- binding result [1]: binds
B4: PR001763 (antibody, human IgG1, V domains shown)
VH: EVQLLESGGGLVQPGGSLRLSCTASGFTFSNYAMSWVRQAPEKGLEWVSSISGSGGSTFYADSVKGRFTISRDNSKNTLYLQMNRLTAEDTAVYYCAKEGSNGTDDYHYDIDVWGQGTTVTVSS
notes: HCAb, heavy chain only, human IgG1 Fc; also called 1016P0016E9

- EC50 [1]: < 0.3 nM
- Kd [2]: 22.3 nM
- Response [2]: 0.273
- koff [2]: 0.00309 s⁻¹
- kon [2]: 139000 M⁻¹ s⁻¹
- Kd [3]: 23.4 nM
- Response [3]: 0.311
- koff [3]: 0.00506 s⁻¹
- kon [3]: 216000 M⁻¹ s⁻¹
B5: PR001833 (antibody, human IgG1, V domains shown)
VH: EVQLLESGGGLVQPGGSLRLSCAASGFTFSSYAMSWVRQAPEKGLEWVSSISGSGGSTFYADSVKGRFTISRDNSKNTLYLQMNSLRAEDTAVYFCAKEGATETDDYHFNTDVWGQGTTVTVSS
notes: HCAb, heavy chain only, human IgG1 Fc; also called 1016P0016F8

- binding result [1]: binds
B6: PR001776 (antibody, human IgG1, V domains shown)
VH: EVQLLESGGGLVQPGGSLRLSCAASGFTFSSYAMSWVRQAPEKGLEWVSAISSSGGSTYYADSVKGRFTISRDNSKNTLYLQMNSLRAEDTAVYYCAKDGVTTPSYYYYYDMDVWGQGTTVTVSS
notes: HCAb, heavy chain only, human IgG1 Fc; also called 1016P0049C7

- EC50 [1]: < 0.3 nM
B7: PR001764 (antibody, human IgG1, V domains shown)
VH: EVQLLESGGGLVQPGGSLRLSCAASGFTFSSYAMSWVRQAPEKGLEWVSAISGGGGSTYYADSVKGRFTISRDNSKNTLYLQMDSLKAEDTAVYYCAKEGTTETDDYHYNMDVWGQGTTVTVSS
notes: HCAb, heavy chain only, human IgG1 Fc; also called 1016P0022E5

- binding result [4]: binds
B8: PR003550 (bispecific antibody, human IgG1, kappa, L234A L235A)
light: DIQMTQSPSTLSASVGDRVTVTCRASQSIYIWLAWYQQKPGKAPNLLIYKASSLETGVPSRFSGSGSGTEFTLTISSLQPDDFATYYCQQYYGSSRTFGQGTKVEIKRTVAAPSVFIFPPSDEQLKSGTASVVCLLNNFYPREAKVQWKVDNALQSGNSQESVTEQDSKDSTYSLSSTLTLSKADYEKHKVYACEVTHQGLSSPVTKSFNRGEC
heavy: EVQLVESGGGLVQPGGSLRLSCAASGFTFSSYWMSWVRQAPGKGLEWVANIKQEGSEKYYVDSVKGRFTISRDNAKNSLYLQMNSLRAEDTAVYYCARDRAVAGAFDIWGQGTMVTVSSASTKGPSVFPLAPSSKSTSGGTAALGCLVKDYFPEPVTVSWNSGALTSGVHTFPAVLQSSGLYSLSSVVTVPSSSLGTQTYICNVNHKPSNTKVDKKVEPKSCDKTHTCPPCPAPEAAGGPSVFLFPPKPKDTLMISRTPEVTCVVVDVSHEDPEVKFNWYVDGVEVHNAKTKPREEQYNSTYRVVSVLTVLHQDWLNGKEYKCKVSNKALGAPIEKTISKAKGQPREPQVYTLPPSREEMTKNQVSLTCLVKGFYPSDIAVEWESNGQPENNYKTTPPVLDSDGSFFLYSKLTVDKSRWQQGNVFSCSVMHEALHNHYTQKSLSLSPGEPKSSDKTHTPPPPPRTEVQLVESGGGVVQPGGSLRLSCAASGFTFSNYAMTWVRQAPEKGLEWVSSISGSGVSTYYADSVKGRFTISRDNSKNTLYLQMTRLTAEDTAVYFCAKEGSSETDDHYYNVDVWGQGTTVTVSS
notes: PD-L1x4-1BB IgG-VH: PR000265 + VH of PR001760 at heavy-chain C-terminus

- binding result [1]: binds
B9: PR007289 (antibody, human IgG1, V domains shown)
VH: EVQLVESGGGLVKPGGSLRLSCAASGFTFSDYYMSWFRQAPGKGLEWVSYISSSGSTQDYADSVKGRFTISRDNAKNSLYLQMNSLRAEDTAVYYCAREREPVAGTLDFDNWGQGTPVTVSS
notes: HCAb, heavy chain only, human IgG1 Fc; also called R1016P145B11

- binding result [1]: binds
B10: PR007288 (antibody, human IgG1, V domains shown)
VH: EVQLVESGGGLVKPGGSLRLSCAASGFTFSDYYMSWFRQAPGKGLEWVSYISGSGSIIDYADSVKGRFTISRDNAKNSLYLQMNSLRAEDTAVYYCSREREAVAGTLDFDYWGQGTLVTVSS
notes: HCAb, heavy chain only, human IgG1 Fc; also called R1016P144G12

- binding result [1]: binds
B11: PR007290 (antibody, human IgG1, V domains shown)
VH: EVQLVESGGGVVQPGRSLRLSCAASGFTFSDYYMSWFRQAPGKGLEWVSYISSSGTTIDYADSVKGRFTISRDNAKNSLYLQMNSLRAEDTAVYYCAREREEVAGTLDFDYWGQGTPVTVSS
notes: HCAb, heavy chain only, human IgG1 Fc; also called R1016P145C05

- binding result [1]: binds
B12: PR001768 (antibody, human IgG1, V domains shown)
VH: EVQLLESGGGLVQPGGSLRLSCAASGFTFSNYAMTWVRQAPGKGLEWVSSISGSGDSTYYADSVKGRFTISRDNSKNTLYLQMNSLRAEDTAVYYCAKEGTGTTSDYYYNVDVWGQGTTVTVSS
notes: HCAb, heavy chain only, human IgG1 Fc; also called 1016P0039B9

- binding result [1]: binds
B13: PR001781 (antibody, human IgG1, V domains shown)
VH: EVQLLESGGGLVQLGGSLRLSCAASGFTFSSYAMTWVRQAPEKGLEWVSSISGSGGNTYYADSVKGRFTISRDNSKNTLYLQMNSLRAEDTAVYYCAKERTGTTGDYYYNVDVWGQGTTVTVSS
notes: HCAb, heavy chain only, human IgG1 Fc; also called 1016P007F3

- binding result [1]: binds
B14: PR001842 (antibody, human IgG1, V domains shown)
VH: EVQLLESGGGLVQPGGSLRLSCAASGFTFSSYAMSWGRQAPGKGLEWVSAISGSGGSTYYADSVKGRFTISRDNSKNTLYLHMNSLRAEDTAVYYCAKEKVATTGDYYYDMDVWGQGTTVTVSS
notes: HCAb, heavy chain only, human IgG1 Fc; also called 1016P0045A3

- binding result [1]: binds
B15: PR001780 (antibody, human IgG1, V domains shown)
VH: EVQLLESGGGLIQPGGSLRLSCAASGFTFSSFAMTWVRQAPGKGLEWVSTISGSGDNTYYADSVKGRFTISRDNSKNTLYLQMNSLRAEDTAVYFCAKEDTAVASDYYYNIDVWGQGTTVTVSS
notes: HCAb, heavy chain only, human IgG1 Fc; also called 1016P0058D11

- binding result [1]: binds
B16: PR001837 (antibody, human IgG1, V domains shown)
VH: EVQLLESGGGLVQPGGSLRLSCEASGFTFSSYAMSWVRQAPEKGLEWVSSISGSGGSTFYADSVKGRFTISRDNSKNTLYLQMNSLRAEDTAVYYCAKEGTTETDDYHYNMDVWGQGTTVTVSS
notes: HCAb, heavy chain only, human IgG1 Fc; also called 1016P0024B10

- binding result [1]: binds
B17: PR001766 (antibody, human IgG1, V domains shown)
VH: EVQLLESGGGLVQPGGSLRLSCAASGFTFSSYAMSWGRQAPGKGLEWVSSISGSGGSTYYADSVKGRFTISRDNSKNTLYLQMNSLRAEDTAVYYCAKEKTGTTGDYYYDMDVWGQGTTVTVSS
notes: HCAb, heavy chain only, human IgG1 Fc; also called 1016P0034F10

- binding result [1]: binds
B18: PR001771 (antibody, human IgG1, V domains shown)
VH: EVQLLESGGGLVQPGGSLRLSCAASGFTFSNYAMTWVRQPPGKGLEWVSSISGSGGSTYYADSVKGRFTISRDNSKNTLYLQMNSLRAEDTAVYYCAKEGTGTTSDYYYNVDVWGQGTTVTVSS
notes: HCAb, heavy chain only, human IgG1 Fc; also called 1016P0042C5

- binding result [1]: binds
B19: PR001834 (antibody, human IgG1, V domains shown)
VH: EVQLLESGGGLVQPGGSLRLSCAASGFTFSGYAMTWVRQPPEKGLEWVSSISGSGNNTFYADSVKGRFTISRDNSKNTLYLQMNSLRAEDTAVYYCAKEGTTETDDYHYNMDVWGQGTTVTVSS
notes: HCAb, heavy chain only, human IgG1 Fc; also called 1016P0019C9

- binding result [1]: binds
B20: PR007381 (antibody, human IgG1, V domains shown)
VH: EVQLLESGGGLVQPGGSLRLSCAASGFTFSNYAMSWVRQAPGKGLEWVSSIDASGGDTYYADSVKGRFTISRDNSKNTLYLQMNSLRAEDTAVYYCAKEGSHGTDDSHYDVDVWGQGTTVTVSS
notes: HCAb, variant of PR001838 (F37V, P40A, E42G, T43K, K46E, G53A), human IgG1

- EC50 [1]: < 0.3 nM
- Kd [2]: 8.89 nM
- Response [2]: 0.25
- koff [2]: 0.00147 s⁻¹
- kon [2]: 165000 M⁻¹ s⁻¹
- Kd [3]: 13.5 nM
- Response [3]: 0.294
- koff [3]: 0.00322 s⁻¹
- kon [3]: 239000 M⁻¹ s⁻¹
B21: PR001836 (antibody, human IgG1, V domains shown)
VH: EVQLLESGGGLVQPGGSLRLSCAASGFIFSNFAMTWVRQPPEKGLKWVSSINGSGFNTYYTDSVKGRFTISRDNSRNTLYLQMNRLTAEDTAVYFCAKEGSSETDDHYYNVDVWGQGTTVTVSS
notes: HCAb, heavy chain only, human IgG1 Fc; also called 1016P0020G4

- EC50 [1]: < 0.3 nM
B22: PR001831 (antibody, human IgG1, V domains shown)
VH: EVQLVESGGGVIQPGGSLRLSCEASGFTFSSYAMSWVRQAPEKGLEWVSSISGSGDSTYYADSVKGRFTISRDNSKNTLYLQMNSLRAEDTAGYHCAKEGSNGTDDYHYDIDVWGQGTSVTVSS
notes: HCAb, heavy chain only, human IgG1 Fc; also called 1016P0015C8

- binding result [1]: binds
B23: PR001774 (antibody, human IgG1, V domains shown)
VH: EVQLVESGGGLVQPGGSLRLSCAASGFTFSSFAMTWVRQAPEKGLEWVSTISGSGDTTYYADSVKGRFTISRDSSKNTLYLQMNSLRAEDSAVYFCAKEATAMASDYYYGVDVWGQGTTVTVSS
notes: HCAb, heavy chain only, human IgG1 Fc; also called 1016P0045F7
